Measurements published in patent US9266964.
Changes are numbered by the printed parent chain.

B1: M9-F08 (Fab, V domains shown)
VH: EVQLLESGGGLVQPGGSLRLSCAASGFTFSPYAMTWVRQAPGKGLEWVSVIYPSGGFTDYADSVKGRFTISRDNSKNTLYLQMNSLRAEDTAMYYCARASGSYLDAFDIWGQGTMVTVSS
VL: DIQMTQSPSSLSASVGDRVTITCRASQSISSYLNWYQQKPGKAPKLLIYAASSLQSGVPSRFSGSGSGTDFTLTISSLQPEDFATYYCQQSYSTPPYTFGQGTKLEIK
notes: Fab fragment (E. coli TG1); printed HC runs into the start of CH1; The LC is printed with an amber codon 'q' (MTqSPS), written here as Q
B2: M9-F09 (Fab, V domains shown)
VH: EVQLLESGGGLVQPGGSLRLSCAASGFTFSSYPMGWVRQAPGKGLEWVSRISSSGGMTIYADSVKGRFTISRDNSKNTLYLQMNSLRAEDTAVYYCARDDWNVGMDVWGQGTTVTVSS
VL: DIQMTQSPSSLSASVGDRVTITCRASQSISSYLNWYQQKPGKAPKLLIYAASSLQSGVPSKFSGSGSGTDYTLTISSLQPEDFATYYCQQTYTTPWTFGQGTKVEIK
notes: Fab fragment (E. coli TG1); printed HC runs into the start of CH1
B3: M9-F10 (Fab, V domains shown)
VH: EVQLLESGGGLVQPGGSLRLSCAASGFTFSDYDMEWVRQAPGKGLEWVSSISPSGGSTIYADSVKGRFTISRDNSKNTLYLQMNSLRAEDTAVYYCARQGLLTAFDIWGQGTMVTVSS
VL: DIQMTQSPSSLSASVGDRVTITCRASQSINTYLNWYQQKPGKAPKVLIHAASTLESGVPSRFSGSGSGTDFTLTISSLQPEDFATYYCQQSYSTPYTFGQGTKLEVR
notes: as for B2
B4: M9-G08 (Fab, V domains shown)
VH: EVQLLESGGGLVQPGGSLRLSCAASGFTFSYYTMLWVRQAPGKGLEWVSSIYPSGGFTMYADSVKGRFTISRDNSKNTLYLQMNSLRAEDTAVYYCARVDTAMAMIDYWGQGTLVTVSS
VL: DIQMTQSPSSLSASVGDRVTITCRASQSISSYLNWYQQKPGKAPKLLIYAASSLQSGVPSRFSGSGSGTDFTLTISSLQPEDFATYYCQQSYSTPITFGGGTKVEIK
notes: as for B2
B5: M9-H02 (Fab, V domains shown)
VH: EVQLLESGGGLVQPGGSLRLSCAASGFTFSAYMMIWVRQAPGKGLEWVSVIYPSGGVTMYADSVKGRFTISRDNSKNTLYLQMNSLRAEDTAVYYCARGTVGASDAFDIWGQGTMVTVSS
VL: DIQMTQSPSSLSASVGDRVIITCRASRSIATYLNWYQQKPGKAPNLLIFGASTLQSGVPSRFSGSGSGTDFTLTISDLQPEDFATYYCQQSFSDPYTFGQGTNLEMK
notes: as for B2
B6: M9-H03 (Fab, V domains shown)
VH: EVQLLESGGGLVQPGGSLRLSCAASGFTFSWYSMGWVRQAPGKGLEWVSYIVPSGGYTMYADSVKGRFTISRDNSKNTLYLQMNSLRAEDTAVYYCARDPGVSYYYYGMDVWGQGTTVTVSS
VL: QYELTQAPSVSVAPGQTASITCSGDKLGNRYTSWYQQKPGQSPVLVIFQDNKRPSGIPERFSGSNSGNTATLTISGTQAMDEADYYCQALDSNTYVFGTGTKVTVL
notes: as for B2
B7: M9-H04 (Fab, V domains shown)
VH: EVQLLESGGGLVQPGGSLRLSCAASGFTFSAYTMWWVRQAPGKGLEWVSSIWPSGGSTFYADSVKGRFTISRDNSKNTLYLQMNSLRAEDTAVYYCARTYDSSAGEVDYWGQGTLVTVSS
VL: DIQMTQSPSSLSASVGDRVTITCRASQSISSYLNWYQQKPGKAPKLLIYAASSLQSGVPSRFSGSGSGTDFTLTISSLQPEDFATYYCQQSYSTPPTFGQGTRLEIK
notes: as for B2
B8: M10-A03 (Fab, V domains shown)
VH: EVQLLESGGGLVQPGGSLRLSCAASGFTFSPYPMQWVRQAPGKGLEWVSSISSSGGMTEYADSVKGRFTISRDNSKNTLYLQMNSLRAEDTAVYYCARDDYGGKGGAFDIWGQGTMVTVSS
VL: DIQMTQSPSSLSASVGDRVTITCRASQRISFYLNWFQQKPGKAPNLLIYGASSLQSGVPSRFSGSGSGTDFTLTISSLQPKDFGTYYCQQTFSTPNTFGQGTKLEIK
notes: as for B2
B9: M10-A12 (Fab, V domains shown)
VH: EVQLLESGGGLVQPGGSLRLSCAASGFTFSLYLMHWVRQAPGKGLEWVSSIYSSGGFTTYADSVKGRFTISRDNSKNTLYLQMNSLRAEDTAVYYCARDTDYGMDVWGQGTTVTVSS
VL: DIQMTQSPLSLSAFVGDRVTITCRASRDISVYLNWYQLKSGKAPKLLIYGASSLQSGVPSRFSGSGSGTDFTLTITSLQPEDFATYYCQQSYSIPFTFGGGTKVETK
notes: as for B2
B10: M10-B09 (Fab, V domains shown)
VH: EVQLLESGGGLVQPGGSLRLSCAASGFTFSWYEMSWVRQAPGKGLEWVSRIWPSGGVTMYADSVKGRFTISRDNSKNTLYLQMNSLRAEDTAVYYCTRTSITTVGMDVWGQGTTVTVSS
VL: DIQMTQSPSSLSASVGDGVTITCRASQSISTYLNWYQQRPGKAPKLLIYGASSLQSGVPSRFSGSGSGTDFTLTISSLQREDFATYYCQQSFSTPWTFGQGTRVEIK
notes: Fab fragment (E. coli TG1); printed HC runs into the start of CH1; The HC is printed with an amber codon 'q' (LqMNSL), written here as Q
B11: M10-C11 (Fab, V domains shown)
VH: EVQLLESGGGLVQPGGSLRLSCAASGFTFSMYPMMWVRQAPGKGLEWVSYISPSGGMTDYADSVKGRFTISRDNSKNTLYLQMNSLRAEDMAVYYCARVAGSSDAFDIWGQGTMVTVSS
VL: DIQMTQSPSSLSASVGDRVTITCRASQSISIYLNWYQQKPEKAPKLLIFAASTLQSGVPSRFSGSGSGTDFTLTISNLQPEDFATYYCQQSHSIPPTFGLGTKVEVK
notes: as for B2
B12: M10-D11 (Fab, V domains shown)
VH: EVQLLESGGGLVQPGGSLRLSCAASGFTFSAYPMNWVRQAPGKGLEWVSRISSSGGNTSYADSVKGRFTISRDNSKNTLYLQMNSLRAEDTAVYYCALGYLGYWGQGTLVTVSS
VL: not shown
notes: as for B2
B13: M10-E06 (Fab, V domains shown)
VH: EVQLLESGGGLVQPGGSLRLSCAASGFTFSLYRMFWVRQAPGKGLEWVSSIWSSGGPTMYADSVKGRFTISRDNSKNTLYLQMNSLRAEDTAVYYCAREYPSTYYFDYWGQGTLVTVSS
VL: DIQMTQSPSSLSASVGDRVTITCRASQSISTYLNWYQQKPGKAPKLLIYGASSLQSGVPSRFSGSGSGTDFTLTISSLQPEDFTIYYCQQSYSDPYTFGQGTKLDIK
notes: as for B2
B14: M10-F09 (Fab, V domains shown)
VH: EVQLLESGGGLVQPGGSLRLSCAASGFTFSNYDMMWVRQAPGKGLEWVSYISPSGGFTRYADSVKGRFTISRDNSKNTLYLQMNSLRAEDTATYYCAKDIYYYNWGPSHYFDSWGQGTLVTVSS
VL: DIQMTQSPSSLSASVGDRVTITCRASQTIDDDLIWYQQKPGRAPKLLIYAASSLQSGVPSRFSGSGSGTDFTLTITSLQPEDFATYYCQQSYNIPRTFGQGTKLESK
notes: as for B2
B15: M10-G09 (Fab, V domains shown)
VH: EVQLLESGGGLVQPGGSLRLSCAASGFTFSQYGMQWVRQAPGKGLEWVSSIRSSGGATRYADSVKGRFTISRDNSKNTLYLQMNSLRAEDTAVYYCARDGYYDSSGYPDYWGQGTLVTVSS
VL: DIQMTQSPSSLSASVGDSVTITCRASQSISGYINWYQQKAGKAPKLLIYAASSLQSGVPSRFSGSGSGTHFTLTISSLQPEDFATYYCQQYVSYPFTFGPGTKVDIK
notes: as for B2
B16: M11-A10 (Fab, V domains shown)
VH: EVQLLESGGGLVQPGGSLRLSCAASGFTFSNYWMMWVRQAPGKGLEWVSGIGSSGGFTSYADSVKGRFTISRDNSKNTLYLQMNSLRAEDTAVYYCAKGSYSDYGVFESWGQGTLVTVSS
VL: DIQMTQSPSSLSASVGDRVAITCRASQSIDTYLNWYQQKPGKAPKLLIYDASNLEIGVPSRFSGSGSGTDFTFIINSLQPEDVATYYCQHYLYAPYSFGQGTKLEIK
notes: as for B2
B17: M11-E01 (Fab, V domains shown)
VH: EVQLLESGGGLVQPGGSLRLSCAASGFTFSTYEMYWVRQAPGKGLEWVSGIGSSGGMTMYADSVKGRFTISRDNSKNTLYLQMNSLRAEDTAMYYCAREQPGIAALQFWGQGTLVTVSS
VL: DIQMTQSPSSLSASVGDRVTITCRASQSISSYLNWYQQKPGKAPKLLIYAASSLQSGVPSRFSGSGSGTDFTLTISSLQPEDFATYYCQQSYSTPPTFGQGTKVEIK
notes: as for B2
B18: M11-E04 (Fab, V domains shown)
VH: EVQLLESGGGLVQPGGSLRLSCAASGFTFSMYHMNWVRQAPGKGLEWVSGIVSSGGVTFYADSVKGRFTISRDNSKNTLYLQMNSLRAEDTAVYYCARITTVTTGGAFDIWGQGTMVTVSS
VL: DIQMTQSPSSLSASVGDRVTITCRASQSISIYLTWYQHRPGKAPNLLIYGAATLQTGVPSRFSGSGSGTDFTLTIRGLQPEDFATYYCQQTFSLPRTFGQGTKLEIK
notes: as for B2
B19: M11-E05 (Fab, V domains shown)
VH: EVQLLESGGGLVQPGGSLRLSCAASGFTFSWYTMGWVRQAPGKGLEWVSWIYFGGLTTYADSVKGRFTISRDNSKNTLYLQMNSLRAEDTAVYYCARLGGPLDAFDIWGQGTMVTVSS
VL: DIQMTQSPSSLSASVGDTVTITCRTSQTINNYLNWYQQRPGEAPKVLIYATHTLESGVPSRFSGSGSGTDFTLTIGSLQPEDFATYYCQQSFAFPYTFGQGTKVEIT
notes: as for B2
B20: M11-E06 (Fab, V domains shown)
VH: EVQLLESGGGLVQPGGSLRLSCAASGFTFSQYAMHWVRQAPGKGLEWVSSIYPSGGFTLYADSVKGRFTISRDNSKNTLYLQMNSLRAEDTAMYYCARGGWLAGGELLNWGQGTLVTVSS
VL: DIQMTQSPSSLSASIGDRVTISCRASRGIGTYLNWYQQHAGKAPKLLIRAASSLETGVPPRFSGSGSGTDFTLTISSLQSDDFATYYCQESFTNVYNFGQGTKLEIK
notes: as for B2
B21: M11-G09 (Fab, V domains shown)
VH: EVQLLESGGGLVQPGGSLRLSCAASGFTFSLYNMTWVRQAPGKGLEWVSYIYPSGGGTHYADSVKGRFTISRDNSKNTLYLQMNSLRAEDTAVYYCARDTGFWSADAFDIWGQGTMVTVSS
VL: DIQMTQSPSSLSASVGDRVTITCRTSQGINHYLNWYQQKPGKAPKILVFAASELQTGVPSRFSGTGSGTSYTLTITSLQPEDVATYYCQQTYTSPYTFGQGTKLEVK
notes: as for B2
B22: M11-G12 (Fab, V domains shown)
VH: EVQLLESGGGLVQPGGSLRLSCAASGFTFSQYPMNWVRQAPGKGLEWVSSISSSGGFTTYADSVKGRFTISRDNSKNTLYLQMNSLRAEDTAVYYCAREEQQGGFDYWGQGTLVTVSS
VL: DIQMTQSPSSLSAFVGDRVSITCRASQTISVYVNWYQHKSGQAPKLLIYGASSLQSGVPSRFSGSGSGTDFTLTISSLQPEDFATYFCQQSYSIPFTFGGGTDVQIR
notes: as for B2
B23: M12-A08 (Fab, V domains shown)
VH: EVQLLESGGGLVQPGGSLRLSCAASGFTFSWYYMGWVRQAPGKGLEWVSWIVSSGGLTLYADSVKGRFTISRDNSKNTLYLQMNSLRAEDTAMYYCARTTVTTGDAFDIWGQGTMVTVSS
VL: B13 VL with T31R, G50A, S53T, Q55E, S56T, S76T, S77T, T84V, D94T, D105E
notes: as for B2

Target: T1, human plasma kallikrein (human, UniProt P03952 20-390; P03952 391-638)
T1 construct: two disulfide-linked chains; also called pKal; human pKal
Assay: ELISA; signal on coated biotinylated human plasma kallikrein divided by signal on streptavidin; Fab
From the text: Abbreviations used: "T/B" is the ELISA signal obtained using of the target (biotinylated plasma kallikrein) divided by the ELISA signal of the "background" (streptavidin); both of which were coated on microtiter plates. "nd" is not determined. The symbol "q" refers to the amber suppressible stop codon (TAG), which is translated as glutamine (Q) in strains of E. coli such as the TG1 cells that were used to express the Fab fragments.

T1 sequence (P03952 20-390, chain 1 of 2): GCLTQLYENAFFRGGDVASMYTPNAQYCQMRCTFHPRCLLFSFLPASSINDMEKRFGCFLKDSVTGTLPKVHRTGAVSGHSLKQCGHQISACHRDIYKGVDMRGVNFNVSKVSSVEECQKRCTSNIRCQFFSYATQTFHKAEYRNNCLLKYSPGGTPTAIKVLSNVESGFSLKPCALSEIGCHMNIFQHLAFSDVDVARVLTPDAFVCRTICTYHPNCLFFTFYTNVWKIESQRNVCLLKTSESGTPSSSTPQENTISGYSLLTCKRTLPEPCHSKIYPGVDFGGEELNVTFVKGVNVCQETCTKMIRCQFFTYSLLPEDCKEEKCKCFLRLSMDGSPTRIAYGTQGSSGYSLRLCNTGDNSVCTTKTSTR
T1 sequence (P03952 391-638, chain 2 of 2): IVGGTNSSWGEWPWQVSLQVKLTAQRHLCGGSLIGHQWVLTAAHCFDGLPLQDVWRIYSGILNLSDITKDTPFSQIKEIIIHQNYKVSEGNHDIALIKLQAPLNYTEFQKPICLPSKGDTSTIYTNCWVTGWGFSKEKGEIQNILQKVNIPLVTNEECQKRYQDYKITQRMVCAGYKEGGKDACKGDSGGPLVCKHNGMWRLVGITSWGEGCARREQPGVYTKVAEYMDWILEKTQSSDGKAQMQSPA

| Binder | Human pKal ELISA (T/B) |
| --- | --- |
| B1 | 10.9 T/B (target signal / background signal) |
| B2 | 7 T/B (target signal / background signal) |
| B3 | 8.4 T/B (target signal / background signal) |
| B4 | 4.8 T/B (target signal / background signal) |
| B5 | 3.5 T/B (target signal / background signal) |
| B6 | 4.4 T/B (target signal / background signal) |
| B7 | 16.1 T/B (target signal / background signal) |
| B8 | 33.7 T/B (target signal / background signal) |
| B9 | 20.8 T/B (target signal / background signal) |
| B10 | 14.1 T/B (target signal / background signal) |
| B11 | 5.3 T/B (target signal / background signal) |
| B12 | 6.4 T/B (target signal / background signal) |
| B13 | 32.8 T/B (target signal / background signal) |
| B14 | 4.8 T/B (target signal / background signal) |
| B15 | 7.1 T/B (target signal / background signal) |
| B16 | 25 T/B (target signal / background signal) |
| B17 | 11.7 T/B (target signal / background signal) |
| B18 | 43.2 T/B (target signal / background signal) |
| B19 | 41.4 T/B (target signal / background signal) |
| B20 | 12.6 T/B (target signal / background signal) |
| B21 | 23.6 T/B (target signal / background signal) |
| B22 | 4.9 T/B (target signal / background signal) |
| B23 | 40.4 T/B (target signal / background signal) |
